Target: T1, K^18-TAMRA-NPY (5/6-tetramethylrhodamine (TAMRA) on the side chain of Lys18)
T1 construct: neuropeptide Y (NPY) with a TAMRA-carrying lysine at position 18; also called Tam-labeled NPY; TAMRA-labeled peptide ligand; source: synthetic peptide (Fmoc/tBu solid phase, RP-HPLC, purity > 95%)
Assay: fluorescence polarisation; various concentrations of receptor in small DMPC/DHPC bicelles with 50 nM (K^18-TAMRA)-NPY, 1 h at room temperature, measured at 20 °C; sigmoidal dose-response fit
Conditions: both partners purified

B1: Y2R_A202^45.49C,Δ6Cys-IAP (A202^45.49-P1) (receptor)
chain: MGPIGAEADENQTVEEMKVEQYGPQTTPRGELVPDPEPELIDSTKLIEVQVVLILAYASIILLGVIGNSLVIHVVIKFKSMRTVTNFFIANLAVADLLVNTLALPFTLTYTLMGEWKMGPVLCHLVPYAQGLAVQVSTITLTVIALDRHRAIVYHLESKISKRISFLIIGLAWGISALLASPLAIFREYSLIEIIPDFEIVCCTEKWPGEEKSIYGTVYSLSSLLILYVLPLGIISFSYTRIWSKLKNHVSPGAANDHYHQRRQKTTKMLVSVVVVFAVSWLPLHAFQLAVDIDSQVLDLKEYKLIFTVFHIIAMASTFANPLLYGWMNSNYRKAFLSAFRSEQRLDAIHSEVSVTFKAKKNLEVRKNSGPNDSFTEATNV
modifications: cysteine at position 202 labelled with 3-(2-iodacetamido)-proxyl (IAP), thioether-bound spin label side chain P1
A Kd of 81.8 ± 5.1 nM was found for B1 in this work.

— PMC10419011, “Dynamics of the Second Extracellular Loop Control Transducer Coupling of Peptide-Activated GPCRs” (International Journal of Molecular Sciences, 2023)
